Target: the molecule itself
Assay: SEC

B1: His-PodJ(1-635) (domain or fragment, Caulobacter crescentus, UniProt Q9ZG88 1-635, looked up)
chain: MTAASPWSVKGIDPKAREVAKDLARRSGMTLGEWLNRMIIEGDGQTADPRLAGDDVPNRAYLEIVKDDAPPRIEIAEHPADEVGRVALALDRLTQRIEAAEGRNAAAITGIDHSVRDALTRLGASEREQIAVAARFEGAVDELKTEQARATERLRRIESEAAGPRSAEALRALEGALGKVAGHLYEGEARTREAIATLEAKLNQQSSGDPSALVEAVVARLGERLEAAETRTSDALRELGASFQALDQRLGAVETANPATGVQEGLDSLAATLTQKMEAARLEMAAKLRESADGRFDRMERKLGEMAAHVQAAEQRSAQAIERMGREIVGVADAFNRRVHAAESRNASAIEQVGGEVARIAASVEHKLNRADSVQAQALEKLGGEIARITEKLAERIGSAERRNALAIDDVGEQVARVTERLNQRHERSSQELVDRIRQSEERTLRMLEEAREKIDSRLSEAQRKLEAAPPSPPPAQAPAPVATAQRPVPPAASPFEDNYFSQAASFSTSEDEADAFDAPPAPARSFEVAEFPAAEPEEPAFAHDDYAIADGFEPESPRYEVEPEVSDFAPAEPSRPMSTRDIIEQARAAARAAAASEGKGGKAKSAKKEKASKASGSLFSGFGGFSTKKSKARL
binding result: binds
